{
  "source": "patent US10494417B2",
  "about": "“Peptide inhibitors of BCR-ABL oligomerization” (University of Utah Research Foundation, priority 2014, dated 2019)",
  "key": {"mCherry-tagged Bcr-Abl": {"molecular_target": "T1, mCherry-tagged Bcr-Abl (Homo sapiens, UniProt P00519+P11274)", "T1 construct": "expressed in transfected cells; host or cells: Cos-7", "T1 sequence (P11274 1-72 limits assumed)": "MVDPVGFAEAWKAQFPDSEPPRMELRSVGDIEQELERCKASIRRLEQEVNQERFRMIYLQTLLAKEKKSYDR", "experiment": "Colocalization analysis in Cos-7 cells", "type": "cell-based", "conditions": "EGFP-tagged CC^mut3 co-transfected with mCherry-tagged Bcr-Abl", "description": "Next, the ability of CC^mut3 to bind to BCR-ABL in live cells was analyzed (FIG. 8B). Colocalization analysis was performed by co-transfecting mCherry-tagged Bcr-Abl and EGFP-tagged CC^mut3 into Cos-7 cells."}, "parental Ba/F3 cells": {"test_system": "parental Ba/F3 cells", "experiment": "Annexin V/7-AAD apoptosis assay in transfected parental Ba/F3 cells", "type": "cell-based, mouse", "conditions": "72 h, CCmut3 vs EV", "description": "(§1) For analysis of apoptosis and cell death, cells were pelleted and resuspended in Annexin V-binding buffer (BD Biosciences), stained with anti-Annexin V-APC (BD Biosciences or Life Technologies) and 7-AAD (BD Biosciences or Life Technologies) and analyzed on a BD FACSCanto flow cytometer. In addition to the APC and 7-AAD channels, GFP- and mCherry-positive cells were also recorded.\nas §1, with “apoptosis and necrotic cell death,” for “apoptosis and cell death,”, “anti-Annexin V-APC and 7-AAD” for “anti-Annexin V-APC (BD Biosciences or Life Technologies) and 7-AAD”"}, "[1]": {"test_system": "Ba/F3 cells expressing native BCR-ABL1", "experiment": "Proliferation of transfected Ba/F3 cells with native p210 BCR-ABL1 (MTS assay)", "type": "cell-based, mouse", "conditions": "CCmut3 vs EV; for reduction of proliferation: 96 h", "description": "Stable recombinant Ba/F3 cells transduced with wild type p210 BCR-ABL1 (Daley, G. Q., et al. (1991) Proc. Natl. Acad. Sci. U.S.A. 88, 11335-11338), the kinase domain mutants p210^T315I p210^[…], or the compound mutant p210^E255V/T315I were as previously described (La Rosee, P., et al. (2002) Cancer Res. 62, 7149-7153; O'Hare, T., et al. (2004) Blood 104, 2532-2539). These cells were cultured in RPMI with 10% FBS, 1% penicillin, streptomycin, glutamine, and 0.1% gentamycin (RPMI1640). Additionally 0.1% MycoZap™ (Lonza Bio, Basel, Switzerland) was added to prevent mycoplasma contamination. The non-transduced parental Ba/F3 cell line was grown in RPMI1640 supplemented with 20% WEHI-3B conditioned medium as a source of murine IL-3 (Dexter, T. M., et al. (1980) J. Exp. Med. 152, 1036-1047). Ba/F3 cells were transfected with plasmid DNA using the Amaxa nucleofection system (Lonza Bio), following the manufacturer's instructions. Cells were sorted on a BD FACSAria cytometer (BD Biosciences, San Jose, Calif.) for double-positive cells expressing mCherry and GFP then returned to RPMI1640 for subsequent experiments.\nCell proliferation was assessed using the CellTiter 96® AQueous One Solution Cell Proliferation Assay (MTS assay, Promega) according to manufacturer instructions. Briefly, 5,000 viable cells were added to a single well in 96-well plate in 100 μL RPMI1640. Three independent samples were seeded in duplicate for each time point. […] In some experiments, cell proliferation was assessed using a Neubauer chamber and trypan blue dye exclusion.\nStable Ba/F3 cells transduced with native (p210) BCR-ABL1, the kinase domain mutants BCR-ABL1T315I, BCR-ABL1E255V, or the compound mutant BCR-ABL1E255V/T315I were cultured. […]\nCell proliferation was assessed using a […] viability assay (MTS assay) utilizing CellTiter 96® AQueous One Solution Cell Proliferation Assay (Promega) according to manufacturer instructions. […] Cell growth was assessed by MTS assay at 72 and 96 h. […] In patient sample experiments, cell proliferation was assessed by trypan blue exclusion."}},
  "note": "Entries after “also recorded” stand apart in the source; their conditions may differ.",
  "data": [
    {"molecule": "CCmut3: modified Bcr-Abl coiled-coil domain (residues 1-72) with mutations C38A, K39E, S41R, L45D, E48R, Q60E (protein) MVDPVGFAEAWKAQFPDSEPPRMELRSVGDIEQELERAEARIRRDEQRVNQERFRMIYLETLLAKEKKSYDR", "values": [
      {"measurement": "intracellular colocalization with BCR-ABL (Costes' coefficient)", "setting": "mCherry-tagged Bcr-Abl", "value": "intracellular colocalization"},
      {"measurement": "apoptosis, in words", "setting": "parental Ba/F3 cells", "value": "no effect on parental Ba/F3 cells; also recorded: no effect on the parental cell line"},
      {"measurement": "apoptosis, in words", "setting": "parental Ba/F3 cells; listed as CC^mut3", "value": "not affected; also recorded: no effect on the parental cells"},
      {"measurement": "reduction of proliferation", "setting": "[1]", "value": "> 2", "unit": "fold"},
      {"measurement": "reduction of proliferation", "setting": "[1]; listed as CC^mut3", "value": "more than 2 fold"},
      {"measurement": "proliferation, in words", "setting": "[1]", "value": "significantly reduced proliferation at 96 h"}
    ]}
  ]
}
